Data from patent US20250042973A1 (WUHAN UNIVERSITY, published 2025).

Target: the molecule itself
Test: self-association (homodimer) seen on SDS-PAGE / Western blot after nickel affinity purification
Protocol: In a process of Western Blot, Gel block of samples from the Electrophoresis was electro-transferred to NC membrane at 100 V for 90 min. The NC membrane was then washed with TBST for three times, and blocked with 5% skim milk on a shaker for 2 h. After blocking, the NC membrane was then washed with TBST for three times, and incubated with GPER antibody (Invitrogen, PA5-28647) overnight. After that, the NC membrane was then washed with TBST for three times, and incubated with secondary antibody (HRP-labeled Goat Anti-Rabbit IgG, ABclonal, AS014, BR) at room temperature for 3 h, washed with TBST for three times, visualized the result in the dark room with DAB.

B1: recombinant protein of GPER (G protein-coupled estrogen receptor) (receptor)
chain: LSHPLLGTALANGTGELSEHQQYVIGLFLSCLYTIFLFPIGFVGNILILVVNISFREKMTIPDLYFINLAVADLILVADSLIEVFNLHERYYDIAVLCTFMSLFLQVNMYSSVFFLTWMSFDRYIALARAMRCSLFRTKHHARLSCGLIWMASVSATLVPFTAVHLQHTDEACFCFADVREVQWLEVTLGFIVPFAIIGLCYSLIVRVLVRAHRMKKYTCTVCGYIYNPEDGDPDNGVNPGTDFKDIPDDWVCPLCGVGKDQFEEVEEHRGLRPRRQKALRMILAVVLVFFVCWLPENVFISVHLLQRTQPGAAPCKQSFRHAHPLTGHIVNLAAFSNSCLNPLIYSFLGETFRDKLRLYIEQKTNL
notes: The source plasmid is wild-type GPER (pDNR-Dual, BC011634, HsCD00005110); The purified protein is reported as monomer and dimer; also called GPER protein
- binding result: binds
